Experimental data reported in the supplement of paper PMC10724198.
± gives the standard deviation of the averaged measurements.

Test system: Saccharomyces cerevisiae
Test: protein stability index of tFT-peptide fusion (C-terminal peptide) (PSI (0-1 scale)); higher = more stable (slower turnover)
Details: temperature: 30 C
Description: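 MPS profiling in S. cerevisiae of the yeast C-terminome library: the last 12 aa of each annotated ORF are fused to the C-terminus of a sfGFP-mCherry timer, after a GGGS linker. Cells are FACS-sorted into 8 mCherry/sfGFP bins and deep-sequenced. PSI runs from 0 (unstable) to 1 (stable); wild type and das1Δ backgrounds, two technical replicates each.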

[1] = genetic background: das1 deletion

Sequence | protein stability index [1] | protein stability index (genetic background: wild type)
KTSPTCHNMFDV [SDD4 C-terminal 12 aa] | 0.7283 ± 0.0018 | 0.6781 ± 0.00075
KVGNDHMELKKE [TFG1 C-terminal 12 aa] | 0.699 ± 0.013 | 0.671 ± 0.035
KVHEHDAKNDSK [CMP2 C-terminal 12 aa] | 0.702 ± 0.032 | 0.688 ± 0.054
KVTFINIEINYR [YGR064W C-terminal 12 aa] | 0.57 ± 0.02 | 0.591 ± 0.03
KWFRENDGKKAN [TSC10 C-terminal 12 aa] | 0.7006 ± 0.0047 | 0.6772 ± 0.0044
KWIEYVEEFQNW [FRE5 C-terminal 12 aa] | 0.7168 ± 0.00097 | 0.73 ± 0.016
LAKGGADVKPKK [RDL2 C-terminal 12 aa] | 0.7071 ± 0.0016 | 0.708 ± 0.033
LASALKELQDAA [YHR112C C-terminal 12 aa] | 0.691 ± 0.0097 | 0.682 ± 0.031
LASVRLSWYSII [YGR204C-A C-terminal 12 aa] | 0.71 ± 0.021 | 0.277 ± 0.014
LDLVARTATLSN [NUP84 C-terminal 12 aa] | 0.695 ± 0.014 | 0.713 ± 0.026
LDNILADLELDV [YIL001W C-terminal 12 aa] | 0.72202 ± 0.00032 | 0.684 ± 0.046
LDYLSSYINRRI [FLP1 C-terminal 12 aa] | 0.7058 ± 0.00092 | 0.6948 ± 0.0047
LEDEDVVTILKK [RBG1 C-terminal 12 aa] | 0.705 ± 0.021 | 0.707 ± 0.0083
LEKQEDYIDNLV [RPC37 C-terminal 12 aa] | 0.697 ± 0.02 | 0.73 ± 0.056
LFCNYITETVEN [ASH1 C-terminal 12 aa] | 0.694 ± 0.0018 | 0.645 ± 0.095
LFSNVLSLSSNI [YGL007C-A C-terminal 12 aa] | 0.7296 ± 0.0024 | 0.695 ± 0.016
LIGGVGLSIWKK [RTT10 C-terminal 12 aa] | 0.7069 ± 0.0038 | 0.668 ± 0.032

Sequence | protein stability index [1] | protein stability index (genetic background: wild type)
LIHASSVEQATA [MRPL4 C-terminal 12 aa] | 0.68 ± 0.016 | 0.6986 ± 0.0057
LILQRLKTSLKI [GFD1 C-terminal 12 aa] | 0.617 ± 0.024 | 0.668 ± 0.03
LIWLTIIYQALT [IRC18 C-terminal 12 aa] | 0.249 ± 0.015 | 0.269 ± 0.0048
LKEFTQFCKDNS [MIX23 C-terminal 12 aa] | 0.724 ± 0.023 | 0.721 ± 0.025
LKFEPTQEIVES [ITR2 C-terminal 12 aa] | 0.7054 ± 0.002 | 0.677 ± 0.032
LKFLEEKFPHDK [AIM17 C-terminal 12 aa] | 0.708 ± 0.02 | 0.691 ± 0.03
LKIKVHIYRMKR [YHL015W-A C-terminal 12 aa] | 0.597 ± 0.021 | 0.5995 ± 0.0016
LKKEKLQALPTP [PDP3 C-terminal 12 aa] | 0.691 ± 0.00082 | 0.675 ± 0.011
LKLEQKIGELSK [CRN1 C-terminal 12 aa] | 0.679 ± 0.0071 | 0.718 ± 0.097
LKNGDKPHMLKF [RPL6A C-terminal 12 aa] | 0.6789 ± 0.0021 | 0.72 ± 0.053
LKQIEMISGFSL [ADF1 C-terminal 12 aa] | 0.707 ± 0.012 | 0.683 ± 0.053
LKTTPCLTHWYN [YIR030W-A C-terminal 12 aa] | 0.699 ± 0.022 | 0.663 ± 0.033
LLCRDSSREVGE [YBL113C C-terminal 12 aa] | 0.702 ± 0.022 | 0.673 ± 0.014
LLEGIIIKLFLY [YDL011C C-terminal 12 aa] | 0.423 ± 0.0049 | 0.174 ± 0.0066
LLGVGIAFYQDR [YJR112W-A C-terminal 12 aa] | 0.706 ± 0.033 | 0.678 ± 0.018
LLLKVEKKGSKK [HTZ1 C-terminal 12 aa] | 0.706 ± 0.034 | 0.716 ± 0.041
